Measured values reported in paper PMC8628696, “Stable DNA Aptamer–Metal–Organic Framework as Horseradish Peroxidase Mimic for Ultra-Sensitive Detection of Carcinoembryonic Antigen in Serum”.

Biological target: carcinoembryonic antigen (CEA) (human, UniProt P06731 35-685)
Assay: colorimetric antibody-aptamer sandwich assay; MOF-grafted tetrahedron 25 ug/mL; CEA 20 ng/mL; antibody-captured CEA; Colorimetric sandwich assay: TMB 2 mM, H2O2 0.2 M, detection time 20 min; binding buffer, pH and temperature not given in the material (storage in PBS at 37 C)
Settings: protein: commercial; label: grafted on PCN-222(Fe) MOF via 5' phosphates (peroxidase mimic); DNA tetrahedron of 4 strands with single-stranded 5' aptamer extension on strand D

Sequence of carcinoembryonic antigen (CEA) (P06731 35-685): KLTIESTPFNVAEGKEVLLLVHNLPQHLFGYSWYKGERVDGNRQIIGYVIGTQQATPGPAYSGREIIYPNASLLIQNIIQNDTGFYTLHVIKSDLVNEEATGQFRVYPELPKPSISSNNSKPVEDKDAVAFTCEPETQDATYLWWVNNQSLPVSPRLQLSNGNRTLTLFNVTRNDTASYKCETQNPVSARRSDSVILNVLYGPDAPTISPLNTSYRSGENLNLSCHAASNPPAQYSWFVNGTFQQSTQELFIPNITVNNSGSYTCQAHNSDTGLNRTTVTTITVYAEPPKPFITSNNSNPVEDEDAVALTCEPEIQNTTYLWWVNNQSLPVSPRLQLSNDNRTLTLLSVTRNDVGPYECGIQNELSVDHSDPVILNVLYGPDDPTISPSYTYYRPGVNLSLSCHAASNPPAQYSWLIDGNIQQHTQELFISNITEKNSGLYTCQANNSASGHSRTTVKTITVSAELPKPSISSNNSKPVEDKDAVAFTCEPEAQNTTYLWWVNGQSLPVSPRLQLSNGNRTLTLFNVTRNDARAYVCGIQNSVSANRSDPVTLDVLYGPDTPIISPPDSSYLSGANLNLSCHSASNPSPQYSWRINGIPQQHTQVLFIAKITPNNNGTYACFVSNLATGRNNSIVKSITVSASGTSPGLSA

B1: CEAapt-TDN (strands D+A+B+C) on PCN-222(Fe) MOF (structured_DNA)
DNA 1: ATACCAGCTTATTCAATTTTTTTTACATTCCTAAGTCTGAAACATTACAGCTTGCTACACGAGAAGAGCCGCCATAGTA
DNA 2: TATCACCAGGCAGTTGACAGTGTAGCAAGCTGTAATAGATGCGAGGGTCCAATAC
DNA 3: TCAACTGCCTGGTGATAAAACGACACTACGTGGGAATCTACTATGGCGGCTCTTC
DNA 4: TTCAGACTTAGGAATGTGCTTCCCACGTAGTGTCGTTTGTATTGGACCCTCGCAT
modifications: 5' phosphate on strands A, B and C
  binding result: binds
